Source: patent US20140179604A1 (U S A REPRESENTED BY THE DEPARTMENT OF VETERANS AFFAIRS, published 2014)
Non-standard residues stand in square brackets, D forms with d. No end group written: not given here. *: point of attachment. Phe(F5) = N[C@@H](Cc1c(F)c(F)c(F)c(F)c1F)C(=O)O; Desaminotyrosyl = O=C(CCc1ccc(O)cc1)*; NMeY = CN[C@@H](Cc1ccc(O)cc1)C(=O)O; Agmatine = N=C(N)NCCCCN*; NMeA = CN[C@@H](C)C(=O)O; Nle = CCCC[C@H](N)C(=O)O; Orn = NCCC[C@H](N)C(=O)O; Abu = CC[C@H](N)C(=O)O; Aoc = NCCCCCCCC(=O)O; Ava = NCCCCC(=O)O; GABA = NCCCC(=O)O

T1: GHRH receptor (membrane receptors of human anterior pituitary cells) (human, UniProt Q02643 23-423)
T1 construct: whole, on cells; Native receptor in a membrane fraction of purchased normal human pituitaries, not intact cells; also called hGHRH receptor; human pituitary membrane homogenates
T1 sequence (looked up): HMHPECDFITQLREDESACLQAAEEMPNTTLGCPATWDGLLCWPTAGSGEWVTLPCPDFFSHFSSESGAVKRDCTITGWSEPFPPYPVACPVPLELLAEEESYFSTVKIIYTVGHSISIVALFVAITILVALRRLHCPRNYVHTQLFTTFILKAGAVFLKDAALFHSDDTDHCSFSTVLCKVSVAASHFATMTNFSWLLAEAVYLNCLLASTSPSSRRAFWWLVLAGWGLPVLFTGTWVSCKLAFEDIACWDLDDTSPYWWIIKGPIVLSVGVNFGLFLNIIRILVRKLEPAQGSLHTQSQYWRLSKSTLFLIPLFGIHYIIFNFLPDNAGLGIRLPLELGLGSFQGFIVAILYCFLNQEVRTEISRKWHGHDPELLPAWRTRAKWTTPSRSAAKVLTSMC

B1: P-22326 [N-Me-Tyr^1, D-Ala^2, Gln^8, Orn^12, Abu^15, Orn^21, Nle^27, Asp^28, Apa^30]hGHRH(1-30)NH2 (peptide)
peptide: [NMeY][dA]DAIFTQSYR[Orn]VL[Abu]QLSAR[Orn]LLQDI[Nle]DR[Ava]-NH2
modifications: N-terminus assumed
SMILES: CCCC[C@H](NC(=O)[C@@H](NC(=O)[C@H](CC(=O)O)NC(=O)[C@H](CCC(N)=O)NC(=O)[C@H](CC(C)C)NC(=O)[C@H](CC(C)C)NC(=O)[C@H](CCCN)NC(=O)[C@H](CCCNC(=N)N)NC(=O)[C@H](C)NC(=O)[C@H](CO)NC(=O)[C@H](CC(C)C)NC(=O)[C@H](CCC(N)=O)NC(=O)[C@H](CC)NC(=O)[C@H](CC(C)C)NC(=O)[C@@H](NC(=O)[C@H](CCCN)NC(=O)[C@H](CCCNC(=N)N)NC(=O)[C@H](Cc1ccc(O)cc1)NC(=O)[C@H](CO)NC(=O)[C@H](CCC(N)=O)NC(=O)[C@@H](NC(=O)[C@H](Cc1ccccc1)NC(=O)[C@@H](NC(=O)[C@H](C)NC(=O)[C@H](CC(=O)O)NC(=O)[C@@H](C)NC(=O)[C@H](Cc1ccc(O)cc1)NC)[C@@H](C)CC)[C@@H](C)O)C(C)C)[C@@H](C)CC)C(=O)N[C@@H](CC(=O)O)C(=O)N[C@@H](CCCNC(=N)N)C(=O)NCCCCC(N)=O
notes: also called MR-326; Peptide 22326
B2: P-25501 [N-Me-Tyr^1, D-Ala^2, Orn^12, Abu^15, Orn^21, Nle^27, Gab^30]hGHRH(1-30)NH2 (peptide)
peptide: [NMeY][dA]DAIFTNSYR[Orn]VL[Abu]QLSAR[Orn]LLQDI[Nle]SR[GABA]-NH2
modifications: N-terminus assumed
SMILES: CCCC[C@H](NC(=O)[C@@H](NC(=O)[C@H](CC(=O)O)NC(=O)[C@H](CCC(N)=O)NC(=O)[C@H](CC(C)C)NC(=O)[C@H](CC(C)C)NC(=O)[C@H](CCCN)NC(=O)[C@H](CCCNC(=N)N)NC(=O)[C@H](C)NC(=O)[C@H](CO)NC(=O)[C@H](CC(C)C)NC(=O)[C@H](CCC(N)=O)NC(=O)[C@H](CC)NC(=O)[C@H](CC(C)C)NC(=O)[C@@H](NC(=O)[C@H](CCCN)NC(=O)[C@H](CCCNC(=N)N)NC(=O)[C@H](Cc1ccc(O)cc1)NC(=O)[C@H](CO)NC(=O)[C@H](CC(N)=O)NC(=O)[C@@H](NC(=O)[C@H](Cc1ccccc1)NC(=O)[C@@H](NC(=O)[C@H](C)NC(=O)[C@H](CC(=O)O)NC(=O)[C@@H](C)NC(=O)[C@H](Cc1ccc(O)cc1)NC)[C@@H](C)CC)[C@@H](C)O)C(C)C)[C@@H](C)CC)C(=O)N[C@@H](CO)C(=O)N[C@@H](CCCNC(=N)N)C(=O)NCCCC(N)=O
notes: also called Peptide 25501
B3: P-21300 [Dat^1, D-Ala^2, Orn^12, Abu^15, Orn^21, Nle^27, Asp^28, Amc^30]hGHRH(1-30)NH2 (peptide)
peptide: [Desaminotyrosyl][dA]DAIFTNSYR[Orn]VL[Abu]QLSAR[Orn]LLQDI[Nle]DR[Aoc]-NH2
SMILES: CCCC[C@H](NC(=O)[C@@H](NC(=O)[C@H](CC(=O)O)NC(=O)[C@H](CCC(N)=O)NC(=O)[C@H](CC(C)C)NC(=O)[C@H](CC(C)C)NC(=O)[C@H](CCCN)NC(=O)[C@H](CCCNC(=N)N)NC(=O)[C@H](C)NC(=O)[C@H](CO)NC(=O)[C@H](CC(C)C)NC(=O)[C@H](CCC(N)=O)NC(=O)[C@H](CC)NC(=O)[C@H](CC(C)C)NC(=O)[C@@H](NC(=O)[C@H](CCCN)NC(=O)[C@H](CCCNC(=N)N)NC(=O)[C@H](Cc1ccc(O)cc1)NC(=O)[C@H](CO)NC(=O)[C@H](CC(N)=O)NC(=O)[C@@H](NC(=O)[C@H](Cc1ccccc1)NC(=O)[C@@H](NC(=O)[C@H](C)NC(=O)[C@H](CC(=O)O)NC(=O)[C@@H](C)NC(=O)CCc1ccc(O)cc1)[C@@H](C)CC)[C@@H](C)O)C(C)C)[C@@H](C)CC)C(=O)N[C@@H](CC(=O)O)C(=O)N[C@@H](CCCNC(=N)N)C(=O)NCCCCCCCC(N)=O
notes: also called Peptide 21300
B4: P-20357 [Dat^1, D-Ala^2, N-Me-Ala^8, Orn^12, Abu^15, Orn^21, Nle^27, Asp^28, Agm^29]hGHRH(1-29)NH2 (peptide)
peptide: [Desaminotyrosyl][dA]DAIFT[NMeA]SYR[Orn]VL[Abu]QLSAR[Orn]LLQDI[Nle]D[Agmatine]
SMILES: CCCC[C@H](NC(=O)[C@@H](NC(=O)[C@H](CC(=O)O)NC(=O)[C@H](CCC(N)=O)NC(=O)[C@H](CC(C)C)NC(=O)[C@H](CC(C)C)NC(=O)[C@H](CCCN)NC(=O)[C@H](CCCNC(=N)N)NC(=O)[C@H](C)NC(=O)[C@H](CO)NC(=O)[C@H](CC(C)C)NC(=O)[C@H](CCC(N)=O)NC(=O)[C@H](CC)NC(=O)[C@H](CC(C)C)NC(=O)[C@@H](NC(=O)[C@H](CCCN)NC(=O)[C@H](CCCNC(=N)N)NC(=O)[C@H](Cc1ccc(O)cc1)NC(=O)[C@H](CO)NC(=O)[C@H](C)N(C)C(=O)[C@@H](NC(=O)[C@H](Cc1ccccc1)NC(=O)[C@@H](NC(=O)[C@H](C)NC(=O)[C@H](CC(=O)O)NC(=O)[C@@H](C)NC(=O)CCc1ccc(O)cc1)[C@@H](C)CC)[C@@H](C)O)C(C)C)[C@@H](C)CC)C(=O)N[C@@H](CC(=O)O)C(=O)NCCCCNC(=N)N
notes: also called Peptide 20357

target: T1, GHRH receptor (membrane receptors of …); assay: competition with 125I-JV-1-42, human pituitary membranes
From the text: Normal human pituitaries were purchased from the National Hormone and Peptide Program (A. F. Parlow, Los Angeles, County Harbor-UCLA Medical Center, Torrance, Calif.).

Row | IC50 [nM] | Relative affinity (Binding potency) vs JI-38 [JI-38 = 1] | Binder
1 | 0.71 | 6.12 | B1
2 | 1.07 | 4.07 | B2
3 | 1.56 | 2.79 | [NMeY][dA]DAI[Phe(F5)]TNSYR[Orn]VL[Abu]QLSAR[Orn]LLQDI[Nle]SR[GABA]-NHMe (also called Peptide 27414) [P-27414 [N-Me-Tyr^1, D-Ala^2, Fpa5^6, Orn^12, Abu^15, Orn^21, Nle^27, Gab^30]hGHRH(1-30)NH-CH3]
4 | 3.61 | 1.2 | B3
5 | 0.86 | 5.06 | B4
6 | 0.83 | 5.24 | [NMeY][dA]DAIFTTSYR[Orn]VL[Abu]QLSAR[Orn]LLQDI[Nle]DR-NHMe (also called MR-410; Peptide 27410) [P-27410 [N-Me-Tyr^1, D-Ala^2, Thr^8, Orn^12, Abu^15, Orn^21, Nle^27, Asp^28]hGHRH(1-29)NH-CH3]

target: T1, GHRH receptor (membrane receptors of …); assay: competition with 125I-[His1,Nle27]hGHRH(1-32)NH2, human pituitary membranes
From the text: Normal human pituitary was purchased from the National Hormone and Peptide Program (UCLA Medical Center, Torrance, Calif.).

Row | IC50 [nM] | Relative affinity (Binding potency) compared to JI-38 [JI-38 = 1] | Relative affinity (Binding potency) compared to hGHRH(1-29) | Binder
7 | 0.98 | 2.8 | 7.81 hGHRH(1-29)NH2 = 1 | B1
8 | 1.28 | 2.14 | 5.98 hGHRH(1-29)NH2 = 1 | [NMeY][dA]DAIFTTSYR[Orn]VL[Abu]QLSAR[Orn]LLQDI[Nle]DR-NHMe (also called MR-410; Peptide 27410) [P-27410 [N-Me-Tyr^1, D-Ala^2, Thr^8, Orn^12, Abu^15, Orn^21, Nle^27, Asp^28]hGHRH(1-29)NH-CH3]
